18 molecules from patent US20120039802A1 (published 2012) can be followed below.

In experiment [1] the target is T1, cMet-Fc fusion protein (extracellular domain of the cMet receptor expressed as an Fc-fusion protein) (human, UniProt P08581 25-932).
T1 construct: extracellular domain; also called soluble cMet-Fc-fusion protein; soluble cMet receptor; not shown: Fc part
The experiment can be described thus: fluorescence polarization, 20 nM fluorescein peptide, cMet-Fc varied. On the procedure:
(§1) Fluorescence anisotropy measurements were performed in 384-well microplates in a volume of 10 μL in binding buffer (PBS, 0.01% Tween-20, pH 7.5) using a Tecan Polarion fluorescence polarization plate reader ([…]). […] Binding mixtures were equilibrated for 10 minutes in the microplate at 30 C before measurement. The observed change in anisotropy was fit to the equation below via nonlinear regression to obtain the apparent KD. This equation (1) assumes that the synthetic peptide and cMet form a reversible complex in solution with 1:1 stoichiometry.
(In general: Polarisation of emitted light reports the rotation of a fluorescent probe.)

Experiment [2] deals with T2, mouse cMet (mouse, UniProt P16056 25-931, limits assumed).
T2 construct: Construct not described; also called Kd (mouse) target
T2 sequence (P16056 25-931 limits assumed): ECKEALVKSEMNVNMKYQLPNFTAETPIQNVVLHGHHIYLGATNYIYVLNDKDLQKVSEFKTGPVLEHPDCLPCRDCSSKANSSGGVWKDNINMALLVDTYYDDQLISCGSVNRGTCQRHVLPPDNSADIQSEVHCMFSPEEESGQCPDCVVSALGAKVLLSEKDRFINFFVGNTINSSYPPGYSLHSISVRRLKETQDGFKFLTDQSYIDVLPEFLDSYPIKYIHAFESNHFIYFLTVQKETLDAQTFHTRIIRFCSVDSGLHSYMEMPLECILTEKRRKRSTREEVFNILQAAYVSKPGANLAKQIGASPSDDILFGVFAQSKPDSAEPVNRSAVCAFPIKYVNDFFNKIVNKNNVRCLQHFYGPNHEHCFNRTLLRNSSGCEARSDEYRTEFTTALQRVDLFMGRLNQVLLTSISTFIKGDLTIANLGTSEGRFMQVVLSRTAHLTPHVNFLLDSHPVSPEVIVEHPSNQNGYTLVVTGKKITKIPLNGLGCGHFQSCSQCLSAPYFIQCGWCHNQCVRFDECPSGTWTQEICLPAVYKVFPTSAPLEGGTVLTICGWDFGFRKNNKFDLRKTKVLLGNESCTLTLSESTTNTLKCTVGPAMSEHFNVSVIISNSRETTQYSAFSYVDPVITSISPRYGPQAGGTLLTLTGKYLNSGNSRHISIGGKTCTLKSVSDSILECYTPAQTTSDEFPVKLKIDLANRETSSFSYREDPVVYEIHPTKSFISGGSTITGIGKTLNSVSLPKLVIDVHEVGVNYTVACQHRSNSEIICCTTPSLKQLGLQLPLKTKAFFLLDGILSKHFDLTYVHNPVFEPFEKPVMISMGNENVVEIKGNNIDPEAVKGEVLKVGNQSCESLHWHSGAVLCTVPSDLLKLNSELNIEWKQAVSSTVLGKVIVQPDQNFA
The experiment can be described thus: fluorescence polarization, mouse target. As for the experimental part: as §1

In experiment [3] the target is T2, mouse cMet. The experiment can be described thus: fluorescence polarization.

One may read the Kd as the constant that tells how readily two partners part at equilibrium. Low readings indicate tighter binding, high ones weaker binding.

fluorescein = fluorescein label on the side chain of the C-terminal Lys A value given as a limit tells only on which side of the number the result lay.

T1 sequence (P08581 25-932): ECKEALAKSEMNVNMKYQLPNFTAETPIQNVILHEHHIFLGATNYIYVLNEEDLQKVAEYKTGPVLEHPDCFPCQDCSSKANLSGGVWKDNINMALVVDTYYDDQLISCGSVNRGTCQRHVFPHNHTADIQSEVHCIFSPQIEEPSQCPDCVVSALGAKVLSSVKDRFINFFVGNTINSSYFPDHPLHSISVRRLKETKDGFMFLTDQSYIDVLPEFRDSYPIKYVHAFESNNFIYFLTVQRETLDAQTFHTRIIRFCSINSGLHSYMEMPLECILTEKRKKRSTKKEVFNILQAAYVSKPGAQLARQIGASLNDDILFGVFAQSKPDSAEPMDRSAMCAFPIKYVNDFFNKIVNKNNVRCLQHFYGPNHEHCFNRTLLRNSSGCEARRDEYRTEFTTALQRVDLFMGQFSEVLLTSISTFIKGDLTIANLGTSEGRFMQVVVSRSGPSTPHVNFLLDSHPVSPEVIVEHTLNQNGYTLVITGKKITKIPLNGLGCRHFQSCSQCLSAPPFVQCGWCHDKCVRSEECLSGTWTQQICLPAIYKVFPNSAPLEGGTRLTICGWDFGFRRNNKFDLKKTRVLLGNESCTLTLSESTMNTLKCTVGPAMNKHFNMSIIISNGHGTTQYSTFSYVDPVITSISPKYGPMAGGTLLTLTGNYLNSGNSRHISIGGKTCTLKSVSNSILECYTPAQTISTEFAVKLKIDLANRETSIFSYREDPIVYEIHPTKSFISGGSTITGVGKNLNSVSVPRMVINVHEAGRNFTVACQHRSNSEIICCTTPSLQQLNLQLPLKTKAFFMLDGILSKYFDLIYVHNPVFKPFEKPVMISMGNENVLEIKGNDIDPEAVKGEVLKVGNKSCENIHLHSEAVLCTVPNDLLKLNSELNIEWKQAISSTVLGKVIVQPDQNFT

Turning to Ac-AQDLKPWTAGWEPPWLWTDRGPGGGK(fluorescein)-NH2 [104-C09 synthetic fluorescein-labeled peptide (SEQ ID NO: 461)], the Kd in experiment [1] was greater than 2000 nM.
In the case of Ac-GSWIICWWDNCGSSAPGGGK(fluorescein)-NH2 (cysteine pairing not given here) [571-C05 synthetic fluorescein-labeled peptide (SEQ ID NO: 001)], the results for the Kd (with mouse cMet [2]; in experiment [1]) were 3500 nM and 200 nM, respectively.
In experiment [1], Ac-AQHWDYDSGSDFWFPVFFLEHHGGGK(fluorescein)-NH2 [79-B02 synthetic fluorescein-labeled peptide (SEQ ID NO: 475)] yielded a Kd of 1900 nM.
Still for that read-out and setting: next, Ac-AQHSVQRQMDVWMPVQFMAGFTGGGK(fluorescein)-NH2 [02-B08 synthetic fluorescein-labeled peptide (SEQ ID NO: 467)]: greater than 2000 nM; Ac-AQVGTAEAIMFSDVEDTGVHKFGGGK(fluorescein)-NH2 [103-G08 synthetic fluorescein-labeled peptide (SEQ ID NO: 459)]: greater than 2000 nM.
For the molecule Ac-GSFFPCWRIDRFGYCHANAPGGGK(fluorescein)-NH2 (cysteine pairing not given here) [551-H10 synthetic fluorescein-labeled peptide (SEQ ID NO: 370)], the binding result with mouse cMet [3] is on record as “no binding”. The same molecule came in with a dissociation constant Kd in experiment [1] of 220 nM.
Ac-AQEWEREYFVDGFWGSWFGIPHGGGK(fluorescein)-NH2 [130-E10 synthetic fluorescein-labeled peptide (SEQ ID NO: 472)]: the Kd amounted to 7650 nM with mouse cMet [2] and 2600 nM in experiment [1].
In experiment [1], Ac-AQGFELWVDHTRNFFIAISPGGGK(fluorescein)-NH2 [127-A07 synthetic fluorescein-labeled peptide (SEQ ID NO: 469)] showed a Kd of 2400 nM.
Molecule Ac-AQKETWEFFDIVYGSGWKFNSPGGGK(fluorescein)-NH2 [116-H02 synthetic fluorescein-labeled peptide (SEQ ID NO: 466)] showed a dissociation constant (Kd) in experiment [1] greater than 2000 nM.
Consider Ac-AQPYYELQDADMLLVVALLSTGGGGK(fluorescein)-NH2 [94-F07 synthetic fluorescein-labeled peptide (SEQ ID NO: 458)], for which, in experiment [1], the affinity, expressed as Kd, was 3750 nM.
On to Ac-GDYSECFFEPDSFEVKCYDRDPGGGK(fluorescein)-NH2 (cysteine pairing not given here) [545-H12 synthetic fluorescein-labeled peptide (SEQ ID NO: 399)], for which the binding result in the experiment with mouse cMet [3] was “no binding”. Moreover, in experiment [1], binding was put at a Kd of 1150 nM.
In experiment [1], Ac-AQWPHDGLVHWGEVIMLRFGGGK(fluorescein)-NH2 [117-F04 synthetic fluorescein-labeled peptide (SEQ ID NO: 479)] gave a dissociation constant Kd of 1700 nM.
Ac-AGSWHCAGPPSFECWEFGTGGGK(fluorescein)-NH2 (cysteine pairing not given here) [331-G04 synthetic fluorescein-labeled peptide (SEQ ID NO: 055)]: the results for the equilibrium dissociation constant (Kd) (with mouse cMet [2]; in experiment [1]) were 1100 nM and 900 nM, respectively.
Ac-AQVPDWLSAVVIEKLIEYGMMVGGGK(fluorescein)-NH2 [93-C08 synthetic fluorescein-labeled peptide (SEQ ID NO: 464)]: in experiment [1], the Kd was greater than 2000 nM.
With Ac-GSPEMCMMFPFLYPCNHHAPGGGK(fluorescein)-NH2 (cysteine pairing not given here) [548-F07 synthetic fluorescein-labeled peptide (SEQ ID NO: 369)], in the experiment with mouse cMet [3], the binding result is “no binding”.
Ac-AQVEDMATVHFKFNPATHEVIWGGGK(fluorescein)-NH2 [524-H02 synthetic fluorescein-labeled peptide (SEQ ID NO: 492)] returned a Kd in experiment [1] of 800 nM.
On the same count and under the same terms, next, Ac-AQHQYGQMMVLHIQYDMGEFIPGGGK(fluorescein)-NH2 [117-F08 synthetic fluorescein-labeled peptide (SEQ ID NO: 462)]: greater than 2000 nM; Ac-AQSPYIFPIDDSGRQIFVIQWGGGGK(fluorescein)-NH2 [76-D09 synthetic fluorescein-labeled peptide (SEQ ID NO: 463)]: greater than 2000 nM.
